One assay concerns the target MMP-2 catalytic domain (UniProt P08253). Description: kcat/KM (M-1 s-1); higher = more efficient cleavage by the protease. As for the experimental part:
(§1)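 Catalytic efficiency (kcat/KM) of synthetic peptides carrying hexamer sequences taken from MMP-2/9 substrate phage selections. Cleavage was measured with recombinant human MMP-2 or MMP-9 catalytic domains (expressed in HEK293, APMA-activated, active-site titrated with GM6001), in triplicate, as described in the authors' ref 27.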

In another assay the target is MMP-9 catalytic domain (UniProt P14780). The description is as above. As for the experimental part:
as §1

50 substances from the supplement of paper PMC7932537, “Quantitative profiling of protease specificity” (PLoS Computational Biology, 2021) can be followed below.

± gives the uncertainty stated by the source.

MMP-9 catalytic domain, sequence (P14780 whole entry, the tested form may be a part): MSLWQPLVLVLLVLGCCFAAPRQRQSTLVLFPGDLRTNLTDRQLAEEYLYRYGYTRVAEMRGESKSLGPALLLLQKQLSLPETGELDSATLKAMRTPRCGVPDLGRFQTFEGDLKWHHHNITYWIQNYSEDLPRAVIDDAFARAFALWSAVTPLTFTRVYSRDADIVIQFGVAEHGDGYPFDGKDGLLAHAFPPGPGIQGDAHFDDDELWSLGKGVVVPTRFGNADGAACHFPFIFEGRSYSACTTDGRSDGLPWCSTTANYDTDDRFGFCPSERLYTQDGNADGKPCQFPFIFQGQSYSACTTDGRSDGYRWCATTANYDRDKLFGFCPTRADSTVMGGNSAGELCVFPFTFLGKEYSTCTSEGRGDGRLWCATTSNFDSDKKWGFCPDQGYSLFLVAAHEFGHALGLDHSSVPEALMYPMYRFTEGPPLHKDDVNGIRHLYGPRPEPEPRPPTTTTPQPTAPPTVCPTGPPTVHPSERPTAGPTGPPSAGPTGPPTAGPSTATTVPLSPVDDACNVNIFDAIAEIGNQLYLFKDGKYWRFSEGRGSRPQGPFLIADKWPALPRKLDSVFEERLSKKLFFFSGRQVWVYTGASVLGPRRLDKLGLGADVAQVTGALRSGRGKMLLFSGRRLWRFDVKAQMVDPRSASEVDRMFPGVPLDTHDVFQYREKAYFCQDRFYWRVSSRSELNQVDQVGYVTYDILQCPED
MMP-2 catalytic domain, sequence (P08253 whole entry, looked up, the tested form may be a part): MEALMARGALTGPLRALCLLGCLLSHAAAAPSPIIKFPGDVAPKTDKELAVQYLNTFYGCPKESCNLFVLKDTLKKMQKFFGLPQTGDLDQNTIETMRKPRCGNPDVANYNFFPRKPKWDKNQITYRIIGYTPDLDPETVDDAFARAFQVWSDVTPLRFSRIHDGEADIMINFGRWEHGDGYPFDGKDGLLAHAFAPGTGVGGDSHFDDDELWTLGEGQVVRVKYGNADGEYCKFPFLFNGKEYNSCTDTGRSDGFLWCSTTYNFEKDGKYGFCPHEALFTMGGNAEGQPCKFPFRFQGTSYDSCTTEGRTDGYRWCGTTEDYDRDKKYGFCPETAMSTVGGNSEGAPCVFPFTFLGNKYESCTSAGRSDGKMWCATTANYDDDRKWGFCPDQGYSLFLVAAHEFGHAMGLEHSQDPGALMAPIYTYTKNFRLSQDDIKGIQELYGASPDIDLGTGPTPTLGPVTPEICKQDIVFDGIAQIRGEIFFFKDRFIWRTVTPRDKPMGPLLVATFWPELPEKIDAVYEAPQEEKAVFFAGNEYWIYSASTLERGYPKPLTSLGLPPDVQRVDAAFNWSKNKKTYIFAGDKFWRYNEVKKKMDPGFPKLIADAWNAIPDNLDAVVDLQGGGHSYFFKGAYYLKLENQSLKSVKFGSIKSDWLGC

PAGVKA: the kcat/KM with MMP-2 catalytic domain amounted to 51800 ± 1300; with MMP-9 catalytic domain, 15200 ± 610.

As for NRPNNL, the kcat/KM with MMP-2 catalytic domain stood at 88100 ± 10000; in the assay with MMP-9 catalytic domain it was 46200 ± 2100.

As to SAAQPL, the results for the kcat/KM with MMP-2 catalytic domain and in the assay with MMP-9 catalytic domain were 12900 ± 340 and 11600 ± 400, respectively.

PHNILS: the kcat/KM with MMP-2 catalytic domain turned out to be 23800 ± 1000; in the assay with MMP-9 catalytic domain, 51700 ± 1400.

With PEGLQG, the kcat/KM in the assay with MMP-2 catalytic domain is 33700 ± 1200; with MMP-9 catalytic domain, 19900 ± 590.

With GPEGMK, the kcat/KM with MMP-2 catalytic domain was 9100 ± 920; with MMP-9 catalytic domain, 3600 ± 320.

For PVNMTD, the kcat/KM with MMP-2 catalytic domain was determined as 15700 ± 290; in the assay with MMP-9 catalytic domain it was 9420 ± 660.

GPKGFR: the kcat/KM was found to be 88300 ± 4700 with MMP-2 catalytic domain and 34000 ± 2300 with MMP-9 catalytic domain.

In the case of GKPVSM, the kcat/KM with MMP-2 catalytic domain was 69800 ± 46000; in the assay with MMP-9 catalytic domain, 43700 ± 2600.

QQPSRL: the kcat/KM was 259000 ± 29000 with MMP-2 catalytic domain and 94300 ± 1600 with MMP-9 catalytic domain.

Turning to KSPVGV, the kcat/KM with MMP-2 catalytic domain turned out to be 15000 ± 600; with MMP-9 catalytic domain it was 18400 ± 730.

With MGPLGQ, the kcat/KM with MMP-2 catalytic domain amounted to 64800 ± 3000; with MMP-9 catalytic domain it was 73000 ± 9100.

Take GQPMNL: the figures for the kcat/KM with MMP-2 catalytic domain and with MMP-9 catalytic domain were 51400 ± 4300 and 90600 ± 8800, respectively.

As for IRPKHF, the kcat/KM with MMP-2 catalytic domain is 43200 ± 4200; with MMP-9 catalytic domain it was 97100 ± 7900.

Turning to TQPKAM, the kcat/KM turned out to be 54700 ± 1400 with MMP-2 catalytic domain and 106000 ± 4800 with MMP-9 catalytic domain.

With KSPSRL, the kcat/KM with MMP-2 catalytic domain worked out at 182000 ± 45000; with MMP-9 catalytic domain it was 140000 ± 4400.

Consider PRPFHH, for which the kcat/KM worked out at 9900 ± 730 with MMP-2 catalytic domain and 23900 ± 850 with MMP-9 catalytic domain.

As for TAPSSQ, the results for the kcat/KM with MMP-2 catalytic domain and in the assay with MMP-9 catalytic domain were 141600 ± 1200 and 45100 ± 8000, respectively.

As for KSPLRQ, the kcat/KM amounted to 6570 ± 450 with MMP-2 catalytic domain and 34600 ± 230 in the assay with MMP-9 catalytic domain.

In the case of MSPANI, the kcat/KM with MMP-2 catalytic domain was 188000 ± 23000; with MMP-9 catalytic domain it was 94700 ± 7900.

Consider PSNMEG, for which the kcat/KM with MMP-2 catalytic domain worked out at 92000 ± 14000; in the assay with MMP-9 catalytic domain it was 50100 ± 8300.

Take PAQLHV: the kcat/KM with MMP-2 catalytic domain amounted to 26000 ± 290; with MMP-9 catalytic domain, 7420 ± 290.

Regarding KPVNMT, the kcat/KM in the assay with MMP-2 catalytic domain came to 37600 ± 1600; with MMP-9 catalytic domain, 84500 ± 2000.

For PRGVKG, the results for the kcat/KM with MMP-2 catalytic domain and with MMP-9 catalytic domain were 58000 ± 1400 and 62100 ± 850, respectively.

As for NPMPIR, the kcat/KM in the assay with MMP-2 catalytic domain was 22600 ± 6500; with MMP-9 catalytic domain, 21200 ± 1300.

As to PKALPY, the kcat/KM was 31000 ± 590 with MMP-2 catalytic domain and 37300 ± 1400 with MMP-9 catalytic domain.

In the case of SIPLPL, the kcat/KM with MMP-2 catalytic domain was 15100 ± 430; with MMP-9 catalytic domain it was 22400 ± 340.

Consider PVAIPM, for which the values for the kcat/KM with MMP-2 catalytic domain and with MMP-9 catalytic domain were 7030 ± 260 and 12400 ± 760, respectively.

For the substance PSPADI, the kcat/KM with MMP-2 catalytic domain came to 70600 ± 3700; with MMP-9 catalytic domain, 18600 ± 1600.

As for DRKPKA, the kcat/KM with MMP-2 catalytic domain and in the assay with MMP-9 catalytic domain was 0 in each case.

Regarding PLQLQT, the values for the kcat/KM with MMP-2 catalytic domain and in the assay with MMP-9 catalytic domain were 10000 ± 190 and 24900 ± 1200, respectively.

In the case of PRPQAA, the kcat/KM with MMP-2 catalytic domain was 13400 ± 1100; in the assay with MMP-9 catalytic domain, 17000 ± 880.

Take SRPAEF: the values for the kcat/KM with MMP-2 catalytic domain and with MMP-9 catalytic domain were 98800 ± 35000 and 16400 ± 740, respectively.

Regarding NVARPM, the figures for the kcat/KM in the assay with MMP-2 catalytic domain and with MMP-9 catalytic domain were 23900 ± 1000 and 27000 ± 2400, respectively.

Regarding QQPQAL, the kcat/KM amounted to 46800 ± 2300 with MMP-2 catalytic domain and 70100 ± 2900 with MMP-9 catalytic domain.

Turning to PTPKAL, the kcat/KM with MMP-2 catalytic domain came out at 35900 ± 2400; with MMP-9 catalytic domain, 69100 ± 1900.

As for SPPAAI, the kcat/KM in the assay with MMP-2 catalytic domain was found to be 79700 ± 8500; with MMP-9 catalytic domain, 64400 ± 1800.

For the substance NPQNIR, the kcat/KM with MMP-2 catalytic domain worked out at 35600 ± 560; in the assay with MMP-9 catalytic domain it was 20300 ± 620.

Turning to PAPNSL, the results for the kcat/KM in the assay with MMP-2 catalytic domain and with MMP-9 catalytic domain were 87800 ± 14000 and 49000 ± 6600, respectively.

For the substance PYEWHS, the kcat/KM with MMP-2 catalytic domain turned out to be 5850 ± 600; in the assay with MMP-9 catalytic domain, 26000 ± 1200.

Take LPKPLR: the values for the kcat/KM in the assay with MMP-2 catalytic domain and with MMP-9 catalytic domain were 42400 ± 1700 and 45900 ± 2300, respectively.

In the case of GPHGYK, the results for the kcat/KM in the assay with MMP-2 catalytic domain and with MMP-9 catalytic domain were 16400 ± 670 and 22100 ± 340, respectively.

In the case of GPRGLK, the kcat/KM with MMP-2 catalytic domain came to 125000 ± 5300; with MMP-9 catalytic domain, 71030 ± 710.

DSPQNL: the kcat/KM in the assay with MMP-2 catalytic domain is 56400 ± 5200; in the assay with MMP-9 catalytic domain, 37200 ± 4900.

Take PHGYKG: the kcat/KM stood at 34600 ± 650 with MMP-2 catalytic domain and 54200 ± 4300 in the assay with MMP-9 catalytic domain.

With QPPLPL, the figures for the kcat/KM with MMP-2 catalytic domain and in the assay with MMP-9 catalytic domain were 15400 ± 1400 and 18700 ± 350, respectively.

For VEPLKF, the kcat/KM with MMP-2 catalytic domain was determined as 18000 ± 700; with MMP-9 catalytic domain, 48900 ± 1900.

Turning to PQGLAG, the kcat/KM was 37400 ± 1300 in the assay with MMP-2 catalytic domain and 40400 ± 1100 in the assay with MMP-9 catalytic domain.

Consider KSPQSY, for which the kcat/KM in the assay with MMP-2 catalytic domain was 46500 ± 1900; with MMP-9 catalytic domain, 66100 ± 4700.

In the case of RMMREL, the kcat/KM in the assay with MMP-2 catalytic domain turned out to be 25300 ± 650; with MMP-9 catalytic domain, 9020 ± 390.
